# Assay results reported in paper PMC3990635.
# B1: PAR1-Venus [mouse] / RGS2-Luciferase [not stated] (parent)
# chain 1: MQSAMFLAVQHDCRPMDKSAGSGHKSEEKREKMKRTLLKDWKTRLSYFLQNSSTPGKPKTGKKSKQQAFIKPSPEEAQLWSEAFDELLASKYGLAAFRAFLKSEFCEENIEFWLACEDFKKTKSPQKLSSKARKIYTDFIEKEAPKEINIDFQTKTLIAQNIQEATSGCFTTAQKRVYSLMENNSYPRFLESEFYQDLCKKPQITTEPHAT
# chain 2: SFFLRNPSENTFELVPLGDEEEEEKNESVLLEGRAVYLNISLPPHTPPPPFISEDASGYLTSPWLTLFMPSVYTIVFIVSLPLNVLAIAVFVLRMKVKKPAVVYMLHLAMADVLFVSVLPFKISYYFSGTDWQFGSGMCRFATAAFYGNMYASIMLMTVISIDRFLAVVYPIQSLSWRTLGRANFTCVVIWVMAIMGVVPLLLKEQTTRVPGLNITTCHDVLSENLMQGFYSYYFSAFSAIFFLVPLIVSTVCYTSIIRCLSSSAVANRSKKSRALFLSAAVFCIFIVCFGPTNVLLIVHYLFLSDSPGTEAAYFAYLLCVCVSSVSCCIDPLIYYYASSECQRHLYSILCCKESSDPNSCNSTGQLMPSKMDTCSSHLNNSIYKKLLA
# Variants of: B1
# Test: BRET assay in live COS7 cells
# Conditions: with RGS2-Luciferase; RGS2-Luc 35 ng; PAR1R205A-Ven 1.5 µg; no Gα11; no TFLLR; parent: 0.028; read off a plot
row,Variant,response
1,chain 2 R164A,0.032

# Same assay, conditions: with RGS2-Luciferase; RGS2-Luc 35 ng; PAR1R205A-Ven 1.5 µg; no Gα11; with TFLLR; parent: 0.048; read off a plot
row,Variant,response
1,chain 2 R164A,0.037

# Same assay, conditions: with RGS2-Luciferase; RGS2-Luc 35 ng; PAR1R205A-Ven 1.5 µg; with 0.5 µg untagged Gα11; no TFLLR; parent: 0.062; read off a plot
row,Variant,response
1,chain 2 R164A,0.047

# Same assay, conditions: with RGS2-Luciferase; RGS2-Luc 35 ng; PAR1R205A-Ven 1.5 µg; with 0.5 µg untagged Gα11; with TFLLR; parent: 0.086; read off a plot
row,Variant,response
1,chain 2 R164A,0.048
